Data reported in patent US10463752B2, “Protein polymer gold nanoparticle hybrid materials for small molecule delivery” (New York University, priority 2016, dated 2019).
Where “and” joins values, the source holds several entries; their conditions need not be identical. Identical values can stand only once. Marks after values point to notes of the source that are not given here.

B1: CE1-His6: protein diblock polymer with N-terminal hexahistidine tag, COMPcc coiled-coil C domain then elastin-like E1 domain (SEQ ID NO: 13) (protein)
chain: MRGSHHHHHHGSACELAATATATATATATAACGDLAPQMLRELQETNAALQDVRELLRQQVKEITFLKNTVMESDASGLQAATATATATATATAVDKPIAASAVPGVGVPGVGVPGFGVPGVGVPGVGVPLEGSGTGAKLN
B2: E1C-His6: protein diblock polymer with N-terminal hexahistidine tag, elastin-like E1 domain then COMPcc coiled-coil C domain (SEQ ID NO: 14) (protein)
chain: MRGSHHHHHHGSKPIAASAVPGVGVPGVGVPGFGVPGVGVPGVGVPLEGSELAATATATATATATAACGDLAPQMLRELQETNAALQDVRELLRQQVKEITFLKNTVMESDASGLQAATATATATATATAVDLQPS

Columns and labels:
[1] = system: MCF7 human breast cancer cells; test: Curcumin uptake in MCF7 cells by fluorescence microscopy; type: cell-based; conditions: complexed with curcumin
Protocol: MCF7 human breast cancer cells were obtained from ATCC and maintained at 37° C., 5% CO2 as monolayer cultures in Dulbecco's modified Eagle's medium (DMEM with high glucose containing phenol red) supplemented with 10% (v/v) fetal bovine serum (FBS), gentamicin (50 μg/mL), 100 U penicillin/100 μg/mL streptomycin. Because the loading capacities of curcumin for P•GNP nanocomposites are much larger than those of the proteins in the absence of GNP we prepared two corresponding curcumin controls that represented the bound curcumin levels in P•G NPs and protein polymers alone (Table 2). To avoid any uptake of unbound curcumin by the cells directly, we limited the curcumin amount that is equivalent to the loading capacity of 26 μM of protein samples in 50 mM sodium phosphate buffer, pH 7.4 and allowed to bind for 2 hours at room temperature prior to cell culture studies.
Multiple sets of experiments were performed to record curcumin uptake by image acquisition using FITC filter (Em: 520 nm) under fluorescence microscopy and direct measurement of curcumin uptake in cell extractions. Cells were grown directly on 24-well culture plates (8×10^4 cells/well) for cell extraction or on cover slips for microscopy. After 24 hours of cell plating, cells were treated for 4 or 24 hours with different combination of proteins with or without GNP and/or curcumin. For all the treatments, the total volume of samples with DMEM in 24-well plates was kept constant at 300 μL with proteins prepared at 10 μM concentrations. The ratio of sample amount to number of cells was also kept constant. The results are representative of two such independent sets of experiments.
For fluorescent imaging of curcumin uptake, cells on coverslips were fixed with 300 μL 4% paraformaldehyde solution in DPBS for 20 minutes at room temperature on a plate rocker. […] Cells were viewed using fluorescence microscope IX71 (Olympus) using DAPI (for cell nuclei) and FITC (for curcumin uptake) at 60× magnification while keeping the exposure time for the FITC images constant at 200 milliseconds.

[2] = system: MCF7 human breast cancer cells; test: MTS cell viability assay; conditions: absorbance at 490 nm
Protocol: (§1) Cell viability measurements were carried out using a CellTiter 96® Aqueous One solution kit (Promega) in a 96-well plate, seeded 1×10^4 cells/well. After 24 hours, the cells were treated for 4 hours or 24 hours with protein polymers and P•G NPs with and without curcumin along with control treatments of curcumin alone and media alone. After the treatment periods, 20 μL [3-(4,5-dimethylthiazol-2-yl)-5-(3-carboxymethoxyphenyl)-2-(4-sulfophenyl)-2H-tetrazolium (MTS) was added to each well, followed by incubation at 37° C. for 3 hours. The plate was centrifuged for 3 minutes at 2500 rpm and then subjected to absorbance measurements at 490 nm (Tables 3 and 4).

[3] = Turbidometry, inverse temperature transition (Tt); type: physicochemical; conditions: midpoint of turbidity at 800 nm
Protocol: The turbidometry, or inverse temperature transition (Tt), was determined via UV-Vis Spectrophotometer Cary-50 (Agilent Technology) equipped with TC 125 temperature controller (Quantum Northwest) in Type 21 quartz cuvette with 10 mm path length (Buck Science) by monitoring the change in turbidity at 800 nm from 25° C. to 80° C. at a rate of 1° C./min. Protein stock solutions for Tt measurement were prepared in 0.2 mg/mL (or 14.3 μM and 14.4 μM for CE1-His6 and E1C-His6, respectively) in 10 mM sodium phosphate buffer, pH 8.0. In order to bring Tt value of all the samples into instrument operation range, highly concentrated NaCl solution was added prior to Tt measurement (Table 1). Measurements were performed on at least two different protein sample preps to calculate the average Tt. The Tt was determined at the midpoint of the normalized turbidity.

[4] = Curcumin loading capacity (small molecule loading); type: physicochemical; conditions: ratio of curcumin to protein or P•G NP; 2 hours incubation at room temperature
Protocol: Curcumin (6.5 nmol final concentration from 3 mM stock solution in HPLC grade methanol) was incubated with 1.3 nmol of CE1-His6, E1C-His6, CE1-His6•GNP and E1C-His6•GNP at room temperature for 2 hours and loaded onto Bio-Rad Spin6 columns packed with Sephadex G-25 medium beads 0.5 cm high. Bound protein polymer•curcumin complexes (in the presence or absence of GNP) were eluted by size, washed 3 times in 50 μL sodium phosphate buffer, followed by centrifugation for 5 min at 14000 rpm. The beads containing unbound curcumin were collected separately and resuspended back to buffer for solvent extraction. Both bound and unbound curcumin were extracted by adding 150 μL ethyl acetate and quantitatively determined by measuring absorbance at 416 nm. Absorbance was measured in a Hellma 105.201-QS type cuvette (10 mm light path, 100 μL sample) on SpectraMax M2. This binding study was performed on at least three different protein sample preparations to calculate the average loading capacities with errors represented as the standard deviation of the three trials.

[5] = Curcumin release over time; type: physicochemical; conditions: by 8.25 hrs, room temperature, 50 mM phosphate buffer pH 7.4
Protocol: Release of curcumin from CE1-His6, E1C-His6, CE1-His6•GNP and E1C-His6•GNP was then investigated. Curcumin (26 nmol) was added to 200 μL of 26 μM (5.2 nmol) protein sample. After 2 hours of incubation at room temperature, the solution was adjusted to contain a final concentration of 0.5 M NaCl. The protein polymer•curcumin complex (in the presence or absence of GNP) were incubated at 45° C. (well above the TO for 30 min and centrifuged to separate protein polymer•curcumin complex from excess curcumin. The pellets were resuspended in 200 μL of 50 mM phosphate buffer, pH 7.4 and kept at room temperature in the dark for release. After 10 min, the suspensions were centrifuged and the supernatant was removed and used for extraction assessment of released curcumin. This resuspension-incubation-spin-release cycle was repeated for the next eight hours at the following time points: 10, 25, 55, 85, 135, 195, 255, 315 and 495 min. Release study was performed on two different protein sample preparations to obtain the averaged release profile. Error bars on the release data represented standard error of the two sample preparations.

[6] = system: MCF7 human breast cancer cells
Protocol: as §1

[7] = protein polymer without GNP; data from Haghpanah et al., Mol. Biosys. 2010; cited from earlier work

Molecule | curcumin uptake visualized by fluorescence (FITC channel) [1] | Abs. (MTS Assay) ([2]; 4 Hour Treatment, listed as CCM1) | Abs. (MTS Assay) ([2]; 4 Hour Treatment, listed as CCM2) | Abs. (MTS Assay) ([2]; 24 Hour Treatment, listed as CCM1) | Abs. (MTS Assay) ([2]; 24 Hour Treatment, listed as CCM2) | Tt ([3]; 0.1621 mg/mL protein, 0.946M NaCl) [°C] | CCM/P molar binding ratio [4] | release of free curcumin [5] [%] | cytotoxicity (MTS assays) [6] | Size of protein particles [7] | Tt ([3]; 0.1818 mg/mL protein, 0.45M NaCl) [°C]
COc1cc(/C=C/C(=O)CC(=O)/C=C/c2ccc(O)c(OC)c2)ccc1O [curcumin] | did not show any uptake | 2.039 ± 0.00 and 1.999 ± 0.05 | 2.044 ± 0.01 and 2.025 ± 0.02 | 1.974 ± 0.01 and 2.034 ± 0.02 | 1.98 ± 0.04 and 1.999 ± 0.01 | – | – | – | – | – | –
B1 | uptake albeit substantially less than the P•G NPs | – | – | – | – | 55.0 ± 0.8 | 0.40 ± 0.06 | 77.0 | neither the protein polymer nor P•G NPs s exhibited cytotoxicity | 26.0 ± 3.0^a nm | –
B2 | uptake albeit substantially less than the P•G NPs | – | – | – | – | – | 0.41 ± 0.10 | 78.8 | neither the protein polymer nor P•G NPs s exhibited cytotoxicity | 27.9 ± 3.7^a nm | 33.8 ± 2.2
